Results reported in publication PMC2572630.

Target: Flag-tagged mR3-3 c-Myb (chicken) (UniProt P01103)
Test: protein chromatin immunoprecipitation (PChIP); 293T cells fixed with 1% formaldehyde, lysate sonicated to chromatin fragments of 100-300 bp, anti-Flag M2 agarose, washes up to 500 mM NaCl and 500 mM LiCl, histones detected by western blot

Sequence of UniProt P01103 (P01103 other isoform, or with tags, fused parts or gaps): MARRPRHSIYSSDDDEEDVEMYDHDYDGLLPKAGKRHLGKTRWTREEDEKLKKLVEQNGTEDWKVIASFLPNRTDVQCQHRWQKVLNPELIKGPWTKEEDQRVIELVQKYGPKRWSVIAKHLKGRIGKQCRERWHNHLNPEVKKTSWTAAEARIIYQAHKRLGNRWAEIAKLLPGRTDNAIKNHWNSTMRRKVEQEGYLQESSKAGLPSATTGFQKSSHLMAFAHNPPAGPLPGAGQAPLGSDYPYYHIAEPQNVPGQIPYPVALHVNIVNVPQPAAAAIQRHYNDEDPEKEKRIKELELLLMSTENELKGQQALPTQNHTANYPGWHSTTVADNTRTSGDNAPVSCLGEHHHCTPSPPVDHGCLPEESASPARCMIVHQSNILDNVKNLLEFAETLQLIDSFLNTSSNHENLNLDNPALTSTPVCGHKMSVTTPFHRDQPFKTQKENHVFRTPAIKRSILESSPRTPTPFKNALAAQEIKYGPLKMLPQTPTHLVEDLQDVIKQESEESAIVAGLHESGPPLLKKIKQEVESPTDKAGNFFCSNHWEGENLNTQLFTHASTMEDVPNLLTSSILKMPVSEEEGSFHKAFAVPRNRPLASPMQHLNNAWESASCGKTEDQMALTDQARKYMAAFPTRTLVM

Percent decrease in association against wild-type c-Myb, 50%:
histone H2A (from UniProt P0C0S8 1-130) (natural protein)
histone H3 (from UniProt P68431 1-136) (natural protein)
histone H4 (from UniProt P62805 1-103) (natural protein)
